Positions count from the first letter of the chain named.
Columns and labels:
[1] = biological target: T1, Nluc-Y2R-eYFP D42A-S43A-T44A (Homo sapiens, UniProt P49146, D42A/S43A/T44A); assay: NanoBRET equilibrium ligand binding
T1 construct: expressed in transfected cells; host or cells: membrane preparations of transiently transfected HEK293
T1 sequence (P49146 1-381 D42A/S43A/T44A): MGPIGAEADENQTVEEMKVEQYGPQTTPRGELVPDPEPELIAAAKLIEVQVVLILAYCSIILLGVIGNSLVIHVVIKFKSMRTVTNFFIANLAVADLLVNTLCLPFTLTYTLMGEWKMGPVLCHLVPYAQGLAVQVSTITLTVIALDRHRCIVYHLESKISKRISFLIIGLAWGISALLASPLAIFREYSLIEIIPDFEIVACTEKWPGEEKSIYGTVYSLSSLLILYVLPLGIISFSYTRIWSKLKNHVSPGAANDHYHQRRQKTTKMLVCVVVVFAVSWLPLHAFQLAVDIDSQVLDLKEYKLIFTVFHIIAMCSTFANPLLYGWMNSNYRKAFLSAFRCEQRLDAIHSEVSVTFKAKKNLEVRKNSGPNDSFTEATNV
Protocol: (§1) Briefly, for each data point, membranes containing 0.03 μg total protein were suspended in ice-cold BRET binding buffer (Hank’s balanced salt solution (HBSS) containing 20 mM HEPES (pH 7.4), 0.1% bovine serum albumin (BSA)). The assay was performed in solid black 96-WP with a total assay volume of 100 μL in technical duplicate or triplicate. […] To determine unspecific binding, 100 µM of the Y2R antagonist JNJ-31020028 (Selleck Europe) were added to each well. […] To start the dissociation measurement, the antagonist JNJ-31020028 was added to a final concentration of 50 µM (20 µL) using the built-in injector system of the plate reader and the BRET decay was measured for 20 min. Raw BRET was calculated as the ratio of fluorescence to luminescence, and the background value of the unspecific binding controls was subtracted to obtain the netBRET signal.

[2] = biological target: T2, Nluc-Y2R-eYFP Δ2-41 (Homo sapiens, UniProt P49146); assay: NanoBRET equilibrium ligand binding
T2 construct: expressed in transfected cells; host or cells: membrane preparations of transiently transfected HEK293
T2 sequence (P49146 with tags, fused parts or gaps): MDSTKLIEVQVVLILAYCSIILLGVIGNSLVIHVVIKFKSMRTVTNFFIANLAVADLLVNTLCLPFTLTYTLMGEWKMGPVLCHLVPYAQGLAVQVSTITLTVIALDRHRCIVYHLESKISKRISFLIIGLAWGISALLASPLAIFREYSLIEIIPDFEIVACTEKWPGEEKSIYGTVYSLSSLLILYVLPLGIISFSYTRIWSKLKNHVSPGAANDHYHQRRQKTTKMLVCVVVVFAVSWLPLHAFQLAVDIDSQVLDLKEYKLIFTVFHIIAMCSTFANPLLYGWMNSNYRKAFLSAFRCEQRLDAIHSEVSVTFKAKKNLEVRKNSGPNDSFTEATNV
Protocol: as §1

[3] = biological target: T3, Nluc-Y2R-eYFP D/E35-39K (Homo sapiens, UniProt P49146, D35K/E37K/E39K); assay: NanoBRET ligand dissociation; format: binding; conditions: koff, charge reversal in the acidic patches
T3 construct: expressed in transfected cells; host or cells: HEK293, transiently transfected, membrane preparations
T3 sequence (P49146 1-381 D35K/E37K/E39K): T1 sequence (P49146 1-381 D42A/S43A/T44A) with D35K, E37K, E39K, A42D, A43S, A44T
Protocol: as §1

[4] = biological target: T4, Nluc-Y2R-eYFP E15-20K (Homo sapiens, UniProt P49146, E15K/E16K/E20K); assay: NanoBRET ligand dissociation; format: binding; conditions: koff, charge reversal in the acidic patches
T4 construct: expressed in transfected cells; host or cells: membrane preparations of transiently transfected HEK293
T4 sequence (P49146 1-381 E15K/E16K/E20K): T1 sequence (P49146 1-381 D42A/S43A/T44A) with E15K, E16K, E20K, A42D, A43S, A44T
Protocol: as §1

[5] = biological target: T2, Nluc-Y2R-eYFP Δ2-41; assay: NanoBRET ligand dissociation; format: binding; conditions: koff
Protocol: as §1

For “K18-Tamra-NPY: tetramethylrhodamine(Tamra)-labeled peptide (K^18-Tamra-NPY)”, the BRETmax ([1]; HEK293 membranes, 10 min RT, mean, 95% CI 0.0040 to 0.0080) was 0.0060, the “Low-affinity state affinity reduction vs wild-type” value ([1]; NanoBRET, HEK293 membranes) was “about three-fold reduced” and the Fraction high affinity ([1]; mean, 95% CI 0.0649 to 0.2365, P<0.01 vs WT) was 0.1507. The “KD, high replicates (log)” value ([1]; replicate 1) was -9.81, the “KD, low replicates (log)” value ([1]; replicate 1) was -6.11 and the “KD, high replicates (log)” value ([1]; replicate 2) was -11.68. The “KD, low replicates (log)” value ([1]; replicate 2) was -6.26, the “KD, high replicates (log)” value ([1]; replicate 3) was -9.11 and the “KD, low replicates (log)” value ([1]; replicate 3) was -5.98. For the same substance, the BRETmax ([2]; HEK293 membranes, 10 min RT, mean, 95% CI 0.5907 to 0.7133, P<0.0001 vs WT) was 0.6520, the “Low-affinity binding constant reduction vs wild-type” value ([2]; NanoBRET, HEK293 membranes) was “about two-fold reduced” and the Fraction high affinity ([2]; mean, 95% CI 0.0357 to 0.0467) was 0.0412. The “KD, high replicates (log)” value ([2]; replicate 1) was -9.51, the “KD, low replicates (log)” value ([2]; replicate 1) was -6.16 and the “KD, high replicates (log)” value ([2]; replicate 2) was -9.76. The “KD, low replicates (log)” value ([2]; replicate 2) was -6.18, the “KD, high replicates (log)” value ([2]; replicate 3) was -9.64 and the “KD, low replicates (log)” value ([2]; replicate 3) was -6.21. For the same substance, the “Increase of ligand dissociation vs wild-type” value (“Increase” below) [3] was “two to three-fold”, the “Increase” value [4] was “two to three-fold” and the “Increase” value [5] was “two to three-fold”.

— article PMC12449476, “Transient ligand contacts of the intrinsically disordered N-terminus of neuropeptide Y2 receptor regulate arrestin-3 recruitment” (Nature Communications, 2025)
